Experimental data: US20260234252A1 (Janssen / Centocor, published 2026)
Values joined by “and” are separate entries in the source; they are usually repeats but may differ in a detail not shown here. Equal entries are not always repeated.

Biological target: T1, Vβ17 on human CD8+ T cells (human)
T1 construct: whole, on cells; Polyclonal donor T cells; also called Vβ17+ CD8+ T cells; M1-stimulated T-cells
Test: flow cytometry on FLU MP 58 stimulated CD8+ T cells, anti-human IgG4 Fc-PE

T1 sequence (A0A075B6N1 22-114): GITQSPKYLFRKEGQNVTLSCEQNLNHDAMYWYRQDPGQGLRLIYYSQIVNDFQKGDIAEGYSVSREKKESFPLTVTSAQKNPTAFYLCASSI

Binder	EC50
VB11 (anti-Vβ17/anti-CD123) bispecific antibody (bispecific antibody, human IgG4 S228P, kappa, F234A L235A, also called Vβ17 and CD123 bispecific) heavy 1: QVQLQESGPGLVKPSETLSLTCTVSGYSITSGYFWNWIRQPPGKGLEWIGYISYDGSNNYNPSLKSRVTISRDTSKNQFSLKLSSVTAADTAVYYCASPSPGTGYAVDYWGQGTLVTVSSASTKGPSVFPLAPCSRSTSESTAALGCLVKDYFPEPVTVSWNSGALTSGVHTFPAVLQSSGLYSLSSVVTVPSSSLGTKTYTCNVDHKPSNTKVDKRVESKYGPPCPPCPAPEAAGGPSVFLFPPKPKDTLMISRTPEVTCVVVDVSQEDPEVQFNWYVDGVEVHNAKTKPREEQFNSTYRVVSVLTVLHQDWLNGKEYKCKVSNKGLPSSIEKTISKAKGQPREPQVYTLPPSQEEMTKNQVSLSCAVKGFYPSDIAVEWESNGQPENNYKTTPPVLDSDGSFFLVSRLTVDKSRWQEGNVFSCSVMHEALHNRFTQKSLSLSLGK light 1: DIQMTQSPSSLSASVGDRVTITCRSSQSLVHSNGNTYLHWYQQKPGKAPKFLIYKVSNRFSGVPSRFSGSGSGTDFTLTISSLQPEDFATYYCSQSTHVPFTFGQGTKLEIKRTVAAPSVFIFPPSDEQLKSGTASVVCLLNNFYPREAKVQWKVDNALQSGNSQESVTEQDSKDSTYSLSSTLTLSKADYEKHKVYACEVTHQGLSSPVTKSFNRGEC heavy 2: EVQLVQSGAEVKKPGESLKISCKGSGYSFTSYWISWVRQMPGKGLEWMGIIDPSDSDTRYSPSFQGQVTISADKSISTAYLQWSSLKASDTAMYYCARGDGSTDLDYWGQGTLVTVSSASTKGPSVFPLAPCSRSTSESTAALGCLVKDYFPEPVTVSWNSGALTSGVHTFPAVLQSSGLYSLSSVVTVPSSSLGTKTYTCNVDHKPSNTKVDKRVESKYGPPCPPCPAPEAAGGPSVFLFPPKPKDTLMISRTPEVTCVVVDVSQEDPEVQFNWYVDGVEVHNAKTKPREEQFNSTYRVVSVLTVLHQDWLNGKEYKCKVSNKGLPSSIEKTISKAKGQPREPQVYTLPPSQEEMTKNQVSLWCLVKGFYPSDIAVEWESNGQPENNYKTTPPVLDSDGSFFLYSRLTVDKSRWQEGNVFSCSVMHEALHNHYTQKSLSLSLGK light 2: EIVLTQSPGTLSLSPGERATLSCRASQSVSSSYLAWYQQKPGQAPRLLIYGASSRATGIPDRFSGSGSGTDFTLTISRLEPEDFAVYYCQQDYGFPWTFGQGTKVEIKRTVAAPSVFIFPPSDEQLKSGTASVVCLLNNFYPREAKVQWKVDNALQSGNSQESVTEQDSKDSTYSLSSTLTLSKADYEKHKVYACEVTHQGLSSPVTKSFNRGEC	1.35 µg/mL and 9 nM
VB13 (Vβ17×Null) bispecific antibody (bispecific antibody, human IgG4 S228P, kappa, F234A L235A, also called Vβ17XNULL; Vβ17 x Null) heavy 1: QVQLQESGPGLVKPSETLSLTCTVSGYSITSGYFWNWIRQPPGKGLEWIGYISYDGSNNYNPSLKSRVTISRDTSKNQFSLKLSSVTAADTAVYYCASPSPGTGYAVDYWGQGTLVTVSSASTKGPSVFPLAPCSRSTSESTAALGCLVKDYFPEPVTVSWNSGALTSGVHTFPAVLQSSGLYSLSSVVTVPSSSLGTKTYTCNVDHKPSNTKVDKRVESKYGPPCPPCPAPEAAGGPSVFLFPPKPKDTLMISRTPEVTCVVVDVSQEDPEVQFNWYVDGVEVHNAKTKPREEQFNSTYRVVSVLTVLHQDWLNGKEYKCKVSNKGLPSSIEKTISKAKGQPREPQVYTLPPSQEEMTKNQVSLSCAVKGFYPSDIAVEWESNGQPENNYKTTPPVLDSDGSFFLVSRLTVDKSRWQEGNVFSCSVMHEALHNRFTQKSLSLSLGK light 1: DIQMTQSPSSLSASVGDRVTITCRSSQSLVHSNGNTYLHWYQQKPGKAPKFLIYKVSNRFSGVPSRFSGSGSGTDFTLTISSLQPEDFATYYCSQSTHVPFTFGQGTKLEIKRTVAAPSVFIFPPSDEQLKSGTASVVCLLNNFYPREAKVQWKVDNALQSGNSQESVTEQDSKDSTYSLSSTLTLSKADYEKHKVYACEVTHQGLSSPVTKSFNRGEC heavy 2: not shown light 2: not shown	2.8 µg/mL and 18.7 nM
